Assay type in all cases: biochemical
Series [1] can be described thus: Dependence of NHase activity on the pH. As to the method:
Cell free crude extracts from Raoultella terrigena (77.1) were incubated for 5 min at 30° C. and the indicated pH-values. The reaction was subsequently started by addition of substrate (1 mM PPN). The activity was determined as described in example 4. Buffers used: McIlvaine buffer: ˜0.1 M citrate/phosphate-buffer; Tris-buffer: 0.1 M Tris/HCl-buffer
Cell free crude extracts from E. coli BL21 (DE3) pET22-77.1a/pET26—77.1b were incubated for 5 min at 30° C. and the indicated pH-values. The reaction was subsequently started by addition of substrate (1 mM PPN). The activity was determined as described in example 4. Buffers used: McIlvaine buffer: ˜0.1 M citrate/phosphate-buffer; Tris-buffer: 0.1 M Tris/HCl-buffer
Cell free crude extracts from Klebsiella sp. (77.1) and E. coli BL21 (DE3) pET22—77.1a/pET26—77.1b were incubated for 5 min at 30° C. and the indicated pH-values. The reaction was subsequently started by addition of substrate (1 mM PPN). The activity was determined as described in example 4. Buffers used: McIlvaine buffer: ˜0.1 M citrate/phosphate-buffer
Lyophilized cells were incubated for 5 min at the indicated pH-values. The reaction was subsequently started by addition of substrate (1 mM PPN). The activity was determined as described in example 4. Buffers used: McIlvaine buffer: ˜0.1 M citrate/phosphate-buffer; Tris-buffer: 0.1 M Tris/HCl-buffer
Cell free crude extracts were incubated for 5 min at the indicated pH-values. The reaction was subsequently started by addition of substrate (1 mM PPN). The activity was determined as described in example 4. Buffers used: McIlvaine buffer: ˜0.1 M citrate/phosphate-buffer; Tris-buffer: 0.1 M Tris/HCl-buffer
(§1) If not otherwise indicated enzyme samples were prepared as follows: the cells from 1 ml of the culture were washed with 50 mM Tris/HCl pH 7.5 and resuspended in 750 μl of the same buffer. This suspension was incubated at 30° C. in a thermomixer at 1000 rpm. The biotransformation was started by addition of the substrate 2-phenylpropionitrile (PPN) in 50 mM Tris/HCl pH 7.5. The concentration of the substrate was 1 mM, if not otherwise stated. The reaction was stopped after 1 min, 5 min or 10 min as indicated by addition of 1 M HCl. Cells were removed by centrifugation and the supernatant analysed by HPLC for the presence of the corresponding amide. The HPLC analysis was carried out on a system comprising a Surveyor 4 channel Pump, AutoSampler and UVNIS detector at 210 nm from Thermo Finnigan on a Grom-Sil 1200DS-3 cp 3 μm (125×4.6 mm) reverse phase column. As mobile phase, acetonitrile and 0.3% H3PO4 were used in a ratio of 50:50 at a flow of 0.7 ml/min, respectively.
The pH-optimum for the enzyme according to Seq ID No. 2 and 4 (Raoultella terrigena, 77.1) has its pH-optimum at pH 6.75 (FIG. 27).
The NHase according to Seq ID. No. 18 and 20 (Klebsiella oxytoca, 38.1.2) was determined to be between pH 7.0-pH 7.5 (FIG. 28 and FIG. 29). […] At a pH 10, the residual activity of the enzyme is about 65-75%.

Series [2] can be described thus: Enantioselectivity of NHases towards rac-mandelonitrile (washed cells, chiral HPLC). The following applies: for enantiopreference: (R/S)-mandelonitrile; for Eapp-value: kinetic resolution of (R/S)-mandelonitrile; for Eapp-value heterologously expressed / Eapp-value homologously expressed: rac-mandelonitrile; for Eapp-value heterologously expressed: heterologously expressed NHase; for Eapp-value homologously expressed: homologously expressed NHase. The procedure:
For the determination of enantioselectivity towards rac-mandelonitrile and 2-phenylpropionitrile 40-50 mg of washed cells were resuspended in 1 ml of 50 mM Tris/HCl pH 7.5. 100 μl of cell suspension were mixed with 800 μl 50 mM Tris/HCl pH 7.5 and incubated at 30° C. in a thermomixer at 1000 rpm. The biotransformation was started by addition of 100 μl of 10 mM rac-mandelonitrile or rac-2-phenylpropionitrile in 50 mM Tris/HCl pH 7.5. The reaction was stopped by addition of 100 μl 1M HCl after 1, 5 or 10 min. Cells were removed by centrifugation and the supernatant analysed by chiral HPLC for the presence of mandeloamide and phenylpropionamide, respectively. rac-Mandeloamide was analysed on a HPLC comprising a Surveyor 4 channel Pump, AutoSampler and UVNIS detector at 210 nm from Thermo Finnigan on a Nucleodex β-OH column (Macherey & Nagel) using 50% methanol/water:water (40:60) as mobile phase at a flow rate of 0.7 ml/min. The apparent enantiomeric ratio (Eapp) of the conversion of mandelonitrile was calculated according to Straathof and Jongejan for […] (see example 9). In case of 2-phenylpropionamide, the samples were lyophilized and resuspended in n-hexane: 2-propanol (80:20). Prior to injection, the samples were additionally dried with sodium sulfate and were centrifugated at 16,000 g for 5 min. The supernatants were analyzed using a Chiracel OD column (Daicel) on a Spectra System (AS3000, P2000, UV2000 at 210 nm) from Thermo Separation Products with n-hexane: 2-propanol (80:20) as mobile phase at a flow rate of 0.5 ml/min. The enantiomeric ratio (E) of the conversion of PPN was calculated according to Chen et al. […]

A short description of series [3]: Activity of enzyme samples after heterologous expression of NHases in E. coli towards PPN. Conditions: 1 mM PPN; stopped after 1 min; host E. coli BL21 (DE3) (a) or E. coli Rosetta (DE3) (b). The procedure:
The amplified α-subunits were ligated to pET22b whereas the β-subunits were ligated to pET26b by use of the unique NdeI and XhoI restriction enzyme recognition sites. E. coli BL21 (DE3) or E. coli Rosetta (DE3) was cotransformed with the vectors carrying the genes for the corresponding α- and β-subunits of the NHases. Freshly transformed cells were grown over night at 37° C. in 5 ml LB-medium containing 100 μg/ml ampicillin, 25 μg/ml kanamycin and 2% (w/v) glucose. In case of E. coli Rosetta (DE3) 12.5 μg/ml chloramphenicol was additionally used. 1 ml of this culture was used to inoculate 100 ml of LB-medium containing 100 μg/ml ampicillin, 25 μg/ml kanamycin and 1% (w/v) glucose. Cells were incubated at 20° C. or 30° C. on a gyratory shaker at 100 rpm. At an optical density O.D.595=1 cells were induced by addition of 100 μg/ml IPTG. Simultaneously, CoCl2*6H2O was added in a concentration of 250 μM. When the P16K activator protein from the strain Brevibacterium linens was coexpressed with the corresponding NHase E. coli Rosetta (DE3) pET22—32B1α pET26—32B.1β pBBR5—32B_P16K was grown in LB-medium containing 100 μg/ml ampicillin, 25 μg/ml kanamycin, 12.5 μg/ml chloramphenicol and 10 μg/ml gentamycin and 1% (w/v) glucose. Samples were taken 24 h after induction.
as §1

Experimental findings from US8470576B2, “Group of novel enantioselective microbial nitrile hydratases with broad substrate specificity” (B.R.A.I.N. AG, priority 2006, dated 2013) are described below.

Where a chain is given by its changes, count along the chain named.

B1: NHase Seq ID No. 2 and 4: nitrile hydratase of Raoultella terrigena strain 77.1, α-subunit SEQ ID NO 2, β-subunit SEQ ID NO 4 (protein)
alpha: MSHKHDHDHTEPPVDIELRVRALESLLQEKGLIDPAALDELIDTYEHKVGPRNGAQVVARAWSDPEYKRRLMENATAAISELGFSGIQGEDMLVVENTPDVHNVTVCTLCSCYPWPVLGLPPVWYKSAPYRSRIVIDPRGVLAEFGLHIPESKEIRVWDSSAELRYLVLPERPAGTDGWSEAQLSELISRDSMIGTGVVTAP
beta: MNGIHDLGGMHGFGPIPTEENEPYFHHEWERRVFPMFASLFVGVHFNVDEFRHSIECMPPADYLQSSYYEHWLHAFETLLLAKGVITVDELWGGAKPTLCKPGTPVLTQDMVSMVVSTGGSARVSHDVAPRFRVGDRVRTKNFNPTTHTRLPRYARDKVGRIEIAHGVFITPDTAAHGLGEHPQHVYSVSFTAQELWGEPRPDNVFIDLWDDYLEEA
modifications: Raoultella terrigena, strain 77.1
As for B1, the pH-optimum in series [1] (1 mM PPN) was found to be 6.75. Also, in series [1] (homologously produced enzyme), the “residual activity at pH 4.0” value is “about 6%”. In addition, in series [1], the “residual activity at pH 10” value is listed as “about 27%”. Further, the “activity at pH<6.0” value in series [1] (recombinantly produced enzyme) is “no activity”. Further, in series [2], the enantiopreference entry is “(S)”, the Eapp-value is reported as 20, the Eapp-value heterologously expressed stood at 20 and the Eapp-value homologously expressed was 19. Further, the vol. activity in series [3] is 4.9 μkat/L cultur.

B2: NHase Seq ID No. 18 and 20: nitrile hydratase of Klebsiella oxytoca strain 38.1.2, α-subunit SEQ ID NO 18, β-subunit SEQ ID NO 20 (protein)
alpha: B1 alpha with E11Q, S80A, S152N, D177E, S189T
beta: MNGIHDLGGMHGLGPIPTEENEPYFHHEWERRVFPLFASLFVGGHFNVDEFRHAIERMAPTEYLQSSYYEHWLHAFETLLLAKGVITVEELWGGAKPAPCKPGTPVLTQEMVSMVVSTGGSARVSHDVAPRFRVGDWVRTKNFNPTTHTRLPRYARDKVGRIEIAHGVFITPDTAAHGLGEHPQHVYSVSFTAQALWGEPRPDKVFIDLWDDYLEEA
modifications: Klebsiella oxytoca, strain 38.1.2
Consider B2, for which the “activity at pH-value<6” value in series [1] (crude cell extracts) is listed as “inactivated”. Besides, the “residual activity at pH 3.0” value in series [1] (lyophilized cells) was “about 10%”. Moreover, the “residual activity at pH 10” value in series [1] is 65-75%. Besides, in series [2], the enantiopreference result is reported as “(S)”, the Eapp-value was 19, the Eapp-value heterologously expressed amounted to 19 and the Eapp-value homologously expressed worked out at 17. In series [3], this molecule returned a spec. activity of 9.6 μkat/g cdw and a vol. activity of 8.6 μkat/L cultur.
